# Results reported in patent US20260266848A1, “COMPOSITIONS AND METHODS FOR DIAGNOSING AND TREATING DYSTONIA” (Duke University, priority 2023, published 2026).
# B1: Psmd8 (protein, UniProt Q9CX56 1-353, looked up)
# 26S proteasome non-ATPase …: MFIKGRAAKTPRGEPRRSSRGGRKLAVVAPPPVLGSTSRPHFRRESIARRRCRKSGRRLAASRKMAATAATVNGSTTVSSSGPAATSVGILQAAAGMYEQLKDEWNRKNPNLSKCGEELGRLKLVLLELNFLPTTGTKLTKQQLILARDILEIGAQWSILCKDIPSFERYMAQLKCYYFDYKEQLPESAYMHQLLGLNLLFLLSQNRVAEFHTELERLPAKDIQTNVYIKHPVSLEQYLMEGSYNKVFLAKGNIPAESYTFFIDILLDTIRDEIAGCIEKAYEKILFAEATRILFFSTPKKMTDYAKKRGWVLGPNNYYSFASQQQKPEDSTIPSTELAKQVIEYARQLEMIV
# B2: Sec23a (protein, UniProt Q01405 2-765, looked up)
# Protein transport protein …: TTYLEFIQQNEERDGVRFSWNVWPSSRLEATRMVVPVAALFTPLKERPDLPPIQYEPVLCSRTTCRAVLNPLCQVDYRAKLWACNFCYQRNQFPPTYAGISELNQPAELLPQFSSIEYVVLRGPQMPLIFLYVVDTCIEDEDLQALKESMQMSLSLLPPTALVGLITFGRMVQVHELGCEGISKSYVFRGTKDLSAKQLQEMLGLSKVPVTQATRGPQVQQPPPSNRFLQPVQKIDMNLTDLLGELQRDPWPVPQGKRPLRSSGVALSIAVGLLECTFPNTGARIMMFIGGPATQGPGMVVGDELKTPIRSWHDIEKDNAKYVKKGTKHFEALANRAATTGHVIDIYACALDQTGLLEMKCCPNLTGGYMVMGDSFNTSLFKQTFQRVFTKDIHGQFKMGFGGTLEIKTSREIKISGAIGPCVSLNSKGPCVSENEIGTGGTCQWKICGLSPTTTLAIYFEVVNQHNAPIPQGGRGAVQFVTQYQHSSGQRRIRVTTIARNWADAQTQIQNIAASFDQEAAAILMARLAIYRAETEEGPDVLRWLDRQLIRLCQKFGEYHKDDPNSFRFSETFSLYPQFMFHLRRSPFLQVFNNSPDESSYYRHHFMRQDLTQSLIMIQPILYAYSFSGPPEPVLLDSSSILADRILLMDTFFQILIYHGETIAQWRKSGYQDMPEYENFRHLLQAPVDDAQEILHSRFPMPRYIDTEHGGSQARFLLSKVNPSQTHNNMYAWGQESGAPILTDDVSLQVFMDHLKKLAVSSAA
# B3: Qars (protein, UniProt Q8BML9 2-775, looked up)
# Glutamine--tRNA ligase: ATPDSLALFTGLGLSENKARETLKNEALSTQLREAATQAHQILGSTIDKATGVLLYDLVSRLRDTRRRSFLVSYIANKKIHTGLQLSAALEYVRSHPQDPIDTKDFEQECGVGVVVTPEQIEEAVESTINKHQLQLLAERYRFNMGLLMGEARAALRWADGKMIKNEVDMQVLHLLGPKMEADLVKKPKVAKARLEETDRKTAKDVVEKGEVAGQTLSLMEQLRGEALKFHKPGENYKTPGYVITPYTMDLLKQHLEITGGQVRTRFPPEPNGILHIGHAKAINFNFGYAKANNGICFLRFDDTNPEKEEAKFFTAIYDMVTWLGYTPYKVTYASDYFDQLYAWAVELIHGGLAYVCHQRVEELKGHNPLPSPWRDRPKEESLLLFEAMRKGKFAEGEATLRMKLVMEDGKMDPVAYRVKYTPHHRTGDKWCIYPTYDYTHCLCDSIEHITHSLCTKEFQARRSSYFWLCNALKVYCPVQWEYGRLNLHYAVVSKRKILQLVAAGAVRDWDDPRLFTLTALRRRGFPPEAINNFCARVGVTVAQTTMEPHLLEACVRDVLNDAAPRAMAVLEPLQVVITNFPAPKPLDIRVPNFPADETKGFHQVPFASTVFIERSDFKEESEPGYKRLASGQPVGLRHTGYVIELQNIVRGSSGCVERLEVTCRRADAGEKPKAFIHWVSQPLVCEIRLYECLFQHKNPEDPVEVPGGFLSDLNPASLQVVEGALVDCSVALAKPFDKFQFERLGYFSVDPDSHQGQIVFNRTVTLKEDPGKI
# B4: Fth1 (protein, UniProt P09528 1-182, looked up)
# Ferritin heavy chain: MTTASPSQVRQNYHQDAEAAINRQINLELYASYVYLSMSCYFDRDDVALKNFAKYFLHQSHEEREHAEKLMKLQNQRGGRIFLQDIKKPDRDDWESGLNAMECALHLEKSVNQSLLELHKLATDKNDPHLCDFIETYYLSEQVKSIKELGDHVTNLRKMGAPEAGMAEYLFDKHTLGHGDES
# B5: Dctn2 (protein, UniProt Q99KJ8 2-402, looked up)
# Dynactin subunit 2: ADPKYADLPGIARNEPDVYETSDLPEDDQAEFDAEELSSTSVEHIIVNPNAAYDKFKDKRVGTKGLDFSDRIGKTKRTGYESGDYEMLGEGLGVKETPQQKYQRLLHEVQELTTEVEKIKTTVKESATEEKLTPVVLAKQLAALKQQLVASHLEKLLGPDAAINLADPDGALAKRLLLQLEATKSSKGSSGGKATAGAPPDSSLVTYELHSRPEQDKFSQAAKVAELEKRLTELEATVRCDQDAQNPLSAGLQGACLMETVELLQAKVSALDLAVLDQVEARLQSVLGKVNEIAKHKASVEDADTQNKVHQLYETIQRWSPVASTLPELVQRLVTIKQLHEQAMQFGQLLTHLDTTQQMMASSLKDNTALLTQVQTTMRENLATVEGNFASIDARMKRLGK
# B6: Kpna4 (protein, UniProt O35343 2-521, looked up)
# Importin subunit alpha-3: ADNEKLDNQRLKNFKNKGRDLETMRRQRNEVVVELRKNKRDEHLLKRRNVPQEDICEDSDIDGDYRVQNTSLEAIVQNASSDNQGIQLSAVQAARKLLSSDRNPPIDDLIKSGILPILVHCLERDDNPSLQFEAAWALTNIASGTSEQTQAVVQSNAVPLFLRLLHSPHQNVCEQAVWALGNIIGDGPQCRDYVISLGVVKPLLSFISPSIPITFLRNVTWVMVNLCRHKDPPPPMETIQEILPALCVLIHHTDVNILVDTVWALSYLTDAGNEQIQMVIDSGIVPHLVPLLSHQEVKVQTAALRAVGNIVTGTDEQTQVVLNCDALSHFPALLTHPKEKINKEAVWFLSNITAGNQQQVQAVIDANLVPMIIHLLDKGDFGTQKEAAWAISNLTISGRKDQVAYLIQQNVIPPFCNLLTVKDAQVVQVVLDGLSNILKMAEDQAETIANLIEECGGLEKIEQLQNHENEDIYKLAYEIIDQFFSSDDIDEDPSLVPESVQGGTFGFNSSTNVPTEGFQF
# B7: Ipo11 (protein, UniProt Q8K2V6 1-975, looked up)
# Importin-11: MDLNSASSVVLQVLTQATSQDTAVLKPAEEQLKQWETQPGFYSVLLNIFTNHTLDINVRWLAVLYFKHGIDRYWRRVAPHALSEEEKSTLRAGLITNFNEPINQIATQIAVLIAKVARLDCPRQWPELIPTLVESVKVQDDLRQHRALLTFYHVTKTLASKRLAADRKLFYDLASGIYNFACSLWNHHTDTFLQHVSSGNEAAVLSSLERTLLSLKVLRKLTVNGFVEPHKNMEVMGFLHGIFERLKQFLECSRSIGTDNVCRDRLEKTIILFTKVLLDFLDQHPISFTPLIQRSLEFSVSYVFTEVGEGVTFERFIVQCMNLIKMIVKNYAYKPSKNFEDSSPETLEAHKIKMAFFTYPTLTEICRRLVSHYFLLTEEELTMWEEDPEGFTVEETGGDSWKYSLRPCTEVLFIDIFHEYNQTLTPVLLEMMQTLEGPTNVEDMNALLIKDAVYNAVGLAAFELFDSVDFDQWFKTQLLPELQVSHNRYKPLRRRVIWLIGQWISVKFKSDLRPMLYEAICNLLQDQDLVVRIETATTLKLTVDDFEFRTDQFLPYLETMFTLLFQLLQQVTECDTKMHVLHVLSCVIERVNVQIRPYVGCLVQYLPLLWKQSEEHNMLRCAILTTLIHLVQGLGADSKNLYPFLLPVIQLSTDVSQPPHVYLLEDGLELWLVTLENSPCVTPELLRIFQNMSPLLELSSENLRTCFKIINGYIFLSSTEFLQTYAAGLCQSFYELLPEITTEGQVQVLKVVENALKVNPVLGPQMFQRILPCVFRGVIEGERYPVVMSIYLAVMGRVLLQNTSFFSSLLNEMGHEFNQEMDQLLGNVIEMWVDRMDNITQPERKKLSALALLSLLPSDNSVIQDKFCGIINISVEALHDVMTEDPETRTYKDCMLMSQHEEPKVTEDEEPPTEQDKRKKMLALKDPVHTVSLQQFIYEKLKAQQEILGEQGFQSLMETVDTEIVTQLQEFLQGF
# Test system: DYT-TOR1A MEF EVs
# Assay: Quantitative LC-MS/MS proteomics of EVs from drug-treated DYT-TOR1A MEF cultures (ritonavir, salubrinal)
# Type: cell-based, mouse
# Design: key to RTV Corrective Direction / RTV Corrective Direction, Grwd1 / RTV Corrective Direction, Srrm2 / RTV Corrective Direction, Rbm17 / RTV Corrective Direction, Dcaf8 / RTV Corrective Direction, Edil3 / RTV Corrective Direction, Timp3 / RTV Corrective Direction, Heatr3 / RTV Corrective Direction, Brd4 / RTV Corrective Direction, P3h4 / RTV Corrective Direction, Pacsin3 / RTV Corrective Direction, Naa50 / RTV Corrective Direction, Lpar6 / RTV Corrective Direction, Ndrg1 / RTV Corrective Direction, Kntc1 / RTV Corrective Direction, Cdk11b / RTV Corrective Direction, Sumo1 / RTV Corrective Direction, Lsm4 / RTV Corrective Direction, Hmga2 / RTV Corrective Direction, Cstf1 / RTV Corrective Direction, Tes / RTV Corrective Direction, Sbno1 / RTV Corrective Direction, Unc119b / RTV Corrective Direction, Cfdp1 / RTV Corrective Direction, Sec61b: YES = protein abundance effect opposite to DYT/WT
# Conditions: EV protein abundance, DYT + RTV (ritonavir) vs DYT, direction compared with DYT/WT
row,Molecule,RTV Corrective Direction
1,B1,YES
2,B2,YES
3,B3,YES
4,B4,YES
5,B5,YES
6,B6,YES
7,B7,YES

# Same assay, conditions: EV protein abundance, ritonavir (RTV)-treated DYT vs DYT
row,Molecule,DYT + RTV/DYT Cohen's d
1,B1,23.45
2,B2,8.14
3,B3,7.21
4,B4,0.31
5,B5,5.51
6,B6,2.38
7,B7,9.75

# Test system: WT MEF EVs
# Assay: Quantitative LC-MS/MS proteomics of EVs from ISRIB-treated WT MEF cultures
# Type: cell-based, mouse
# Design: key to ISRIB and DYT Parallel Direction / ISRIB and DYT Parallel Direction, Ctdsp1 / ISRIB and DYT Parallel Direction, Pcdh19 / ISRIB and DYT Parallel Direction, Tspan7 / ISRIB and DYT Parallel Direction, Myo1e / ISRIB and DYT Parallel Direction, Plpp3 / ISRIB and DYT Parallel Direction, Sh3bp4 / ISRIB and DYT Parallel Direction, Dnajc7 / ISRIB and DYT Parallel Direction, Drg1 / ISRIB and DYT Parallel Direction, Maea: YES = protein abundance effect similar to DYT/WT
# Conditions: EV protein abundance, ISRIB-treated WT vs WT
row,Molecule,WT + ISRIB/WT Cohen's d
1,B1,−3.31
2,B2,−0.95
3,B3,−2.14
4,B4,−3.46
5,B5,−0.53
6,B6,−3.18
7,B7,−1.97

# Same assay, conditions: EV protein abundance, WT + ISRIB vs WT, direction compared with DYT/WT
row,Molecule,ISRIB and DYT Parallel Direction
1,B1,YES
2,B2,YES
3,B3,YES
4,B4,YES
5,B5,YES
6,B6,YES
7,B7,YES
